Measurements taken from the supplement of paper PMC9112550, “Optimization of the antimicrobial peptide Bac7 by deep mutational scanning” (BMC Biology, 2022).

Tested on: Escherichia coli TOP10
Assay: shrunken log2 fold change of peptide-encoding DNA abundance (4.5 h post-induction vs induction); higher = less antimicrobial activity (less host growth inhibition)
Conditions: time post-induction: 4.5 h; library: site-saturation at positions 5, 18, 19, 20
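Further: peptides expressed intracellularly from a pBAD plasmid library in pooled LB shake-flask culture, induced with 0.3% L-arabinose, DNA abundance read by NGS, three biological replicates, DESeq2 with apeglm shrinkage.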

Sequence	shrunken log2 fold change
RRIRTRPPRLPRPRPRPWWEPRP	0.00671
RRIRQRPPRLPRPRPRPNGSPRP	-0.00154
RRIRARPPRLPRPRPRPFVGPRP	-0.0485
RRIRHRPPRLPRPRPRPKWVPRP	-0.302
RRIRFRPPRLPRPRPRPAGDPRP	0.378
RRIRVRPPRLPRPRPRPRKLPRP	-0.0444
RRIRWRPPRLPRPRPRPRPMPRP	0.427
RRIRKRPPRLPRPRPRPQVFPRP	0.00956
RRIRSRPPRLPRPRPRPVIGPRP	0.0912
RRIRARPPRLPRPRPRPLLQPRP	0.171
RRIRFRPPRLPRPRPRPEAYPRP	-0.0029
RRIRARPPRLPRPRPRPYITPRP	-0.904
RRIRNRPPRLPRPRPRPVAGPRP	-0.124
RRIRERPPRLPRPRPRPDYYPRP	-0.603
RRIRLRPPRLPRPRPRPGPKPRP	0.352
RRIRTRPPRLPRPRPRPIYFPRP	-0.468
RRIRHRPPRLPRPRPRPGQPPRP	0.0384
RRIRGRPPRLPRPRPRPPRCPRP	0.951
RRIRFRPPRLPRPRPRPEIEPRP	0.0594
RRIRMRPPRLPRPRPRPQNWPRP	0.532
RRIRYRPPRLPRPRPRPPDHPRP	0.0391
RRIRERPPRLPRPRPRPVVPPRP	-0.158
RRIRARPPRLPRPRPRPGAEPRP	1.1
RRIRIRPPRLPRPRPRPSAYPRP	-0.138
RRIRNRPPRLPRPRPRPVKFPRP	-0.0271

Sequence	shrunken log2 fold change
RRIRFRPPRLPRPRPRPGSWPRP	0.244
RRIRQRPPRLPRPRPRPPMRPRP	0.862
RRIRYRPPRLPRPRPRPPFWPRP	0.395
RRIRMRPPRLPRPRPRPWRAPRP	0.595
RRIRTRPPRLPRPRPRPEFMPRP	0.0647
RRIRFRPPRLPRPRPRPDTEPRP	-0.776
RRIRRRPPRLPRPRPRPFWRPRP	0.0251
RRIRKRPPRLPRPRPRPCRIPRP	-0.0405
RRIRRRPPRLPRPRPRPMSVPRP	-0.0792
RRIRVRPPRLPRPRPRPNVHPRP	-0.546
RRIRARPPRLPRPRPRPDELPRP	0.63
RRIRHRPPRLPRPRPRPWHKPRP	-0.113
RRIRLRPPRLPRPRPRPMMVPRP	-0.145
RRIRPRPPRLPRPRPRPEIHPRP	-0.536
RRIRYRPPRLPRPRPRPLHLPRP	-0.516
RRIRMRPPRLPRPRPRPRLMPRP	-0.0423
RRIRLRPPRLPRPRPRPRWNPRP	-0.0729
RRIRARPPRLPRPRPRPSFTPRP	0.582
RRIRARPPRLPRPRPRPPPNPRP	1.35
RRIRGRPPRLPRPRPRPLLDPRP	2.07
RRIRFRPPRLPRPRPRPNNMPRP	-0.699
RRIRDRPPRLPRPRPRPYFDPRP	-0.0823
RRIRLRPPRLPRPRPRPWSRPRP	-0.264
RRIRCRPPRLPRPRPRPVMTPRP	-0.147
RRIRDRPPRLPRPRPRPAFPPRP	-0.0705

Sequence	shrunken log2 fold change
RRIRCRPPRLPRPRPRPGNDPRP	0.00582
RRIRQRPPRLPRPRPRPDPVPRP	0.0565
RRIRTRPPRLPRPRPRPRIRPRP	0.0303
RRIRKRPPRLPRPRPRPYFRPRP	0.123
RRIRDRPPRLPRPRPRPIPTPRP	0.00396
RRIRQRPPRLPRPRPRPTIQPRP	0.0369
RRIRLRPPRLPRPRPRPCYEPRP	-0.284
RRIRCRPPRLPRPRPRPETEPRP	-0.0921
RRIRLRPPRLPRPRPRPTETPRP	-0.021
RRIRWRPPRLPRPRPRPFKLPRP	-0.044
RRIRNRPPRLPRPRPRPTRTPRP	0.211
RRIRNRPPRLPRPRPRPGNFPRP	-0.0496
RRIRSRPPRLPRPRPRPQKFPRP	-0.14
RRIRPRPPRLPRPRPRPTMWPRP	0.457
RRIRERPPRLPRPRPRPFHHPRP	0.0149
RRIRQRPPRLPRPRPRPGEQPRP	0.201
RRIRFRPPRLPRPRPRPGFWPRP	0.24
RRIRERPPRLPRPRPRPLLQPRP	-0.0771
RRIRCRPPRLPRPRPRPPLKPRP	0.353
RRIRCRPPRLPRPRPRPMGHPRP	-0.262
RRIRHRPPRLPRPRPRPYFLPRP	-0.996
RRIRNRPPRLPRPRPRPGYPPRP	0.0226
RRIRYRPPRLPRPRPRPPMTPRP	-0.456
RRIRWRPPRLPRPRPRPHINPRP	-0.491
RRIRGRPPRLPRPRPRPVNWPRP	0.302

Sequence	shrunken log2 fold change
RRIRPRPPRLPRPRPRPTSNPRP	-0.123
RRIRKRPPRLPRPRPRPFNSPRP	-0.0903
RRIRRRPPRLPRPRPRPMYWPRP	-0.185
RRIRPRPPRLPRPRPRPLYFPRP	-0.602
RRIRHRPPRLPRPRPRPSFRPRP	-0.15
RRIRIRPPRLPRPRPRPYLGPRP	-0.279
RRIRHRPPRLPRPRPRPENLPRP	-0.00992
RRIRERPPRLPRPRPRPGEWPRP	0.0118
RRIRQRPPRLPRPRPRPINDPRP	-0.293
RRIRYRPPRLPRPRPRPGSGPRP	-0.0839
RRIRTRPPRLPRPRPRPPYAPRP	-0.17
RRIRMRPPRLPRPRPRPEYFPRP	-0.109
RRIRHRPPRLPRPRPRPVMFPRP	-0.0942
RRIRHRPPRLPRPRPRPSEYPRP	-0.787
RRIRTRPPRLPRPRPRPHLTPRP	0.101
RRIRHRPPRLPRPRPRPPHEPRP	0.181
RRIRLRPPRLPRPRPRPSNMPRP	-0.406
RRIRNRPPRLPRPRPRPRHHPRP	-0.246
RRIRYRPPRLPRPRPRPRCFPRP	-0.152
RRIRRRPPRLPRPRPRPTQDPRP	1.87
RRIRDRPPRLPRPRPRPVDIPRP	-0.0995
RRIRRRPPRLPRPRPRPETGPRP	0.304
RRIRERPPRLPRPRPRPDVRPRP	0.0184
RRIRMRPPRLPRPRPRPWLLPRP	-0.0297
RRIRQRPPRLPRPRPRPQGAPRP	-0.0289

Sequence	shrunken log2 fold change
RRIRSRPPRLPRPRPRPKGFPRP	0.158
RRIRTRPPRLPRPRPRPDAHPRP	0.128
RRIRFRPPRLPRPRPRPPYVPRP	-0.36
RRIRQRPPRLPRPRPRPRDRPRP	0.399
RRIRIRPPRLPRPRPRPIYKPRP	-0.517
RRIRMRPPRLPRPRPRPNFDPRP	0.622
RRIRIRPPRLPRPRPRPASTPRP	-0.0836
RRIRDRPPRLPRPRPRPHSRPRP	-0.328
RRIRERPPRLPRPRPRPLDMPRP	-0.16
RRIRARPPRLPRPRPRPQKFPRP	-0.509
RRIRRRPPRLPRPRPRPRYAPRP	0.284
RRIRCRPPRLPRPRPRPETLPRP	-0.193
RRIRVRPPRLPRPRPRPKYYPRP	-0.921
RRIRYRPPRLPRPRPRPVNWPRP	-0.0321
RRIRVRPPRLPRPRPRPNSTPRP	-0.515
RRIRIRPPRLPRPRPRPTTIPRP	-0.578
RRIRCRPPRLPRPRPRPAFMPRP	0.117
RRIRWRPPRLPRPRPRPTNVPRP	-0.0165
RRIRYRPPRLPRPRPRPPTWPRP	-0.0624
RRIRCRPPRLPRPRPRPGLQPRP	0.109
RRIRNRPPRLPRPRPRPHDMPRP	-0.137
RRIRRRPPRLPRPRPRPIWHPRP	0.176
RRIRWRPPRLPRPRPRPITNPRP	-0.0654
RRIRKRPPRLPRPRPRPREVPRP	0.538
RRIRVRPPRLPRPRPRPPDYPRP	-0.114

Sequence	shrunken log2 fold change
RRIRKRPPRLPRPRPRPLFRPRP	0.696
RRIRARPPRLPRPRPRPACQPRP	0.486
RRIRLRPPRLPRPRPRPSTMPRP	-0.407
RRIRDRPPRLPRPRPRPGCKPRP	0.0398
RRIRNRPPRLPRPRPRPWVNPRP	-0.00663
RRIRARPPRLPRPRPRPMQNPRP	0.767
RRIRCRPPRLPRPRPRPSGTPRP	-0.0132
RRIRDRPPRLPRPRPRPTYYPRP	-0.204
RRIRFRPPRLPRPRPRPSHQPRP	-0.229
RRIRKRPPRLPRPRPRPDIMPRP	1.57
RRIRTRPPRLPRPRPRPNMFPRP	-0.315
RRIRPRPPRLPRPRPRPRTCPRP	0.322
RRIRWRPPRLPRPRPRPTQMPRP	0.59
RRIRLRPPRLPRPRPRPNCHPRP	-0.156
RRIRYRPPRLPRPRPRPMNYPRP	-0.49
RRIRVRPPRLPRPRPRPGAHPRP	0.0262
RRIRGRPPRLPRPRPRPTYAPRP	0.436
RRIRQRPPRLPRPRPRPIKNPRP	-0.186
RRIRYRPPRLPRPRPRPHRRPRP	-0.0466
RRIRDRPPRLPRPRPRPYMTPRP	-0.0206
RRIRRRPPRLPRPRPRPHNTPRP	-0.115
RRIRIRPPRLPRPRPRPINAPRP	-0.431
RRIRGRPPRLPRPRPRPDPQPRP	0.694
RRIRWRPPRLPRPRPRPDWQPRP	0.00408
RRIRVRPPRLPRPRPRPQEIPRP	-0.0438
